This note sets out measurements from the supplement of paper PMC9170038.

The series concerns MS2 coat protein. Nature of the series: apparent KD of MS2 coat protein; designed switch direction (-1 OFF switch, 1 ON switch): 1; higher = weaker reporter binding. The essentials: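 On Illumina chips, designed RNA switches with common flanks were made by stalled E. coli RNA polymerase. Titrations with SNAP-549-labelled MS2 coat protein, doubling from 0.7 or 1.5 nM to 3 µM, were done with no input, with 200 uM small-molecule ligand, or with an oligonucleotide input. Apparent KD is the median per design over clusters, from curve fits of normalised cluster fluorescence.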

The mark [1] stands for this setting: input ligand: microRNA oligo, concentration not stated.
The mark [2] stands for this setting: Eterna round: R95, input ligand: FMN 200 uM.
Setting [3] is: Eterna round: R95, input ligand: microRNA oligo, concentration not stated.
Setting [4] is: Eterna round: R95, input ligand: none.

On to “CAAGAAAACGCAGGAUAUACCCGGACAACCCGGGUAGAAGGGUGACACAUGAGGAUCACCCAUGUACAUGGCAAUAACCAUGGA [Sobiais] (Eterna round: R96, puzzle: Same State NG 1)”, for which the “apparent KD of MS2 coat protein” value reads like this: (input ligand: FMN 200 uM) 15.2 nM; under setting [1], 10.7 nM; (input ligand: none) 35.4 nM.

Take “GUAGAUGUAGAGGAGGAUAUUCAAUAGAGAACAUGAGGAUCACCCAUGUAAGAGAGAGAUGAUGGGAAGAAGGCUUAGAGAGAUG [Altered State 2-1 - Jieux - Same State 2] (puzzle: Same State 2)”: the “apparent KD of MS2 coat protein” value reads like this: under setting [2], 72.2 nM; under setting [3], 76.6 nM; under setting [4], 94.8 nM.

As to “GAGCUCGUGUGAGGAUAUGCCGCCGUUUCGGCUGCAGAAGGUGCUACGUUACAUGAGGAUCACCCAUGUCUCUGUUGUUUCGUC [salish99_SSNG1_r04_961] (Eterna round: R96, puzzle: Same State NG 1)”, the “apparent KD of MS2 coat protein” value is 25.1 nM (input ligand: FMN 200 uM), 24.2 nM under setting [1] and 30 nM (input ligand: none).

As to “AAAUAAAACACAGGAUAUGCAGCCAAUACGGCGGCAGAAGGGUGAGACAUGAGGAUCACCCAUGUACACGUCCCACAGACGUGC [Mabege] (Eterna round: R96, puzzle: Same State NG 1)”, the “apparent KD of MS2 coat protein” value is, setting by setting: (input ligand: FMN 200 uM) 426 nM; under setting [1], 89.9 nM; (input ligand: none) 119 nM.

On to “AACAAACAUGAGGAUCACCCAUGUACAGACCUGGACAUUGUCGAGGAUAUCAGCAAGAAAACAGCUGAGAAGGUGACGCCAGAG [Eternabot solution 6] (Eterna round: R96, puzzle: Same State NG 3)”, for which the “apparent KD of MS2 coat protein” value (input ligand: FMN 200 uM) turned out to be 30.8 nM, the “apparent KD of MS2 coat protein” value under setting [1] is 52.2 nM and the “apparent KD of MS2 coat protein” value (input ligand: none) stood at 70.3 nM.

In the case of “AGCUAGUACCGAGGAUAUACAUACAUGAGGAUCACCCAUGUAUACAUGAAUAAAUGAGACUACAUGUAGAAGGCGGUACUAGCA [Mat - Same State NG 2 - JL mod - D47] (Eterna round: R96, puzzle: Same State NG 2)”, the “apparent KD of MS2 coat protein” value under setting [1] amounted to 48.8 nM.

As to “AUAGUUGCCGAAGGAUAUGAUGAUGAUCACACAUCAGAAGGUCGGCUAUUGGGUGGACAUGAGGAUCACCCGUGUUCUUUGGUC (Eterna round: R96, puzzle: Same State NG 1)”, the “apparent KD of MS2 coat protein” value is, setting by setting: (input ligand: FMN 200 uM) 96.1 nM; under setting [1], 79.5 nM; (input ligand: none) 103 nM.

Regarding “GGAUGAUUAAUAGGAUAUUAUUUGUAAAAUGGUUAAGAAGGAUUAAUGAUUUAAACGACCAGAUACAUGAGGAUCACCCAUGUA [JR_SSNG1_Sub091] (Eterna round: R96, puzzle: Same State NG 1)”, the “apparent KD of MS2 coat protein” value under setting [1] was 19.5 nM.

As for “CUUUUUAAUGCAGGAUAUGAUCAACAUGAGGAUCACCCAUGUGGUGUUGUGAGUAAGGAGAGUGAUCAGAAGGGCAUCUCCUCA [SS-NG2-LRO06] (Eterna round: R96, puzzle: Same State NG 2)”, the “apparent KD of MS2 coat protein” value by setting is: (input ligand: FMN 200 uM) 186 nM; under setting [1], 73.6 nM; (input ligand: none) 83.6 nM.

As to “GGAAUAUGAUGUUACAUGAGGAUCACCCAUGUAGUAAUAACUAAGGAUAUCUGUUAUGAUUAAUAAGAGAAGGUAGGAUCAUAA [AK SSNG3-V2-9] (Eterna round: R96, puzzle: Same State NG 3)”, the “apparent KD of MS2 coat protein” value runs as follows: (input ligand: FMN 200 uM) 23.6 nM; under setting [1], 19 nM; (input ligand: none) 25.8 nM.

As for “ACAUGAGACCAAGGAUAUCUUGUACCUACAUGUGACAUGAGGAUCACCCAUGUGGUAAGUAUGAGGGAGAAGGUGGAGAUAUGU [Equivalence 25 - Jieux - Same State NG 2] (Eterna round: R96, puzzle: Same State NG 2)”, the “apparent KD of MS2 coat protein” value reads like this: (input ligand: FMN 200 uM) 26.2 nM; under setting [1], 18.8 nM; (input ligand: none) 36.7 nM.

Take “GAUCGUUUGAUAGGAUAUCGCUAUACAUGAGGAUCACCCAUGUUUACCACGCUGGUUUUUCAUACCGAGAAGGAUUCUGAUGAA [salish99_SSNG02_r04_010] (Eterna round: R96, puzzle: Same State NG 2)”: the “apparent KD of MS2 coat protein” value is, setting by setting: (input ligand: FMN 200 uM) 27.5 nM; under setting [1], 27.8 nM; (input ligand: none) 30.7 nM.

For the sequence “AGUCCAGCCUGAGCUGGACAAAAGCAUGUACAUGAGGAUCACCCAUGUUCAUGUACAAGCUUUUUGCUCGUCUUACC [salish99_208a_r3_079] (puzzle: Sensor for hsa-mir-208a)”, the “apparent KD of MS2 coat protein” value reads like this: under setting [2], 669 nM; under setting [3], 15.8 nM; under setting [4], 722 nM.

As to “AGUCCAGCCAAAGCUGGACAAAAGCAUGUACAUGAGGAUCACCCAUGUUCAUGUACAAGCUUUUUGCAAGUCAAAAG [Mat - hsa-mir-208a - Mod of JL - 77] (puzzle: Sensor for hsa-mir-208a)”, the “apparent KD of MS2 coat protein” value by setting is: under setting [2], 332 nM; under setting [3], 29.5 nM; under setting [4], 498 nM.

With “UGCUAGGAUAUCUUGAGGAUCACCCAGGAGAAGGAGCCAAGCUAGGAUAUCCUGAGGAUCACCCAGGAGAAGGAGCACAUACUC [pwkr ssNG3 DX 2xF5 +2xFMN.13] (Eterna round: R96, puzzle: Same State NG 3)”, the “apparent KD of MS2 coat protein” value reads like this: (input ligand: FMN 200 uM) 107 nM; under setting [1], 59.6 nM; (input ligand: none) 102 nM.

Take “AUAAAACAUGAGGAUCACCCAUGUAGACGGAGAGCCGUCACAUAGGAUAUAGCCAGCGGUGUUGGCUAGAAGGGUGGUAGAAAA [Lavezaer] (Eterna round: R96, puzzle: Same State NG 3)”: the “apparent KD of MS2 coat protein” value runs as follows: (input ligand: FMN 200 uM) 59.8 nM; under setting [1], 78.1 nM; (input ligand: none) 130 nM.

On to “GGUCCAGCCUGAGCUGGACAAAAGCAUGUACAUGAGGAUCACCCAUGUCAUGUACAAGCUUUUUGCUCGUCUAAAUG [Mat - hsa-mir-208a - 93] (puzzle: Sensor for hsa-mir-208a)”, for which the “apparent KD of MS2 coat protein” value reads like this: under setting [2], 802 nM; under setting [3], 21.7 nM; under setting [4], 758 nM.

On to “AGUAGUGUAACAUGAGGAUCACCCAUGUAAGAAGAUGUAACCUAGGAUAUGGAUGAUAUGUUAGACCAGAAGGAGGAUUGUUUA [JR_SSNG3_Sub039] (Eterna round: R96, puzzle: Same State NG 3)”, for which the “apparent KD of MS2 coat protein” value (input ligand: FMN 200 uM) was found to be 43.2 nM, the “apparent KD of MS2 coat protein” value under setting [1] is 116 nM and the “apparent KD of MS2 coat protein” value (input ligand: none) was 207 nM.

With “UAUCCAUAGAUAGGAUAUUAGUGAACAUGAGGAUCACCCAUGUUUUGCUUGGUUUUAAGCUAAUCUGAGAAGGAUCUUGAUGAA [SameState NG2 #6] (Eterna round: R96, puzzle: Same State NG 2)”, the “apparent KD of MS2 coat protein” value reads like this: (input ligand: FMN 200 uM) 31.5 nM; under setting [1], 33.3 nM; (input ligand: none) 41.6 nM.

For the sequence “GUUAAACAUGAGGAUCACCCAUGUAAUAUAAUGGGAGGAUAUCUGAAUUAAUUAAAUUAAGGAGAAGGCCUAUAUG [Mat - Same State 1 - Mod of Eli - D53] (puzzle: Same State 1)”, the “apparent KD of MS2 coat protein” value was found to be 36.6 nM under setting [2], 210 nM under setting [3] and 271 nM under setting [4].

In the case of “UUAAUGAUGUAAGGAUAUACAUGAGGAUUUCUCGUAGAAGGUACAGGACAUGAGGAUCACCCAUGUGUCGCUCAGAAGAGCGUA [Mat - Same State NG 1 - JL mod - D17] (Eterna round: R96, puzzle: Same State NG 1)”, the “apparent KD of MS2 coat protein” value amounted to 509 nM (input ligand: FMN 200 uM), 505 nM under setting [1] and 636 nM (input ligand: none).

Consider “CGUCCGGCCUGAGCUGGACGGAAGCAUGUACAUGAGGAUCACCCAUGUUCAUGUGCAGGCUUUUUGCUCGUCUUGUG [JL-shm-2.08 JL mod] (puzzle: Sensor for hsa-mir-208a)”, for which the “apparent KD of MS2 coat protein” value under setting [2] is 105 nM, the “apparent KD of MS2 coat protein” value under setting [3] came out at 12.5 nM and the “apparent KD of MS2 coat protein” value under setting [4] stood at 127 nM.

Regarding “AAGAAUCUAUCUCAGGAUAUCAUGUCAAAGACAUGAGGAUCACCCAUGUACCAGGAAACUGGUUAUGAGAAGGGAGAUAGAUUCA [Mat - Same State 2 - Mod - D31] (puzzle: Same State 2)”, the “apparent KD of MS2 coat protein” value under setting [2] was 98.6 nM, the “apparent KD of MS2 coat protein” value under setting [3] amounted to 118 nM and the “apparent KD of MS2 coat protein” value under setting [4] stood at 79.6 nM.

As for “GUGGUCAGACAUGAGGAUCACCCAUGUGGAAUAAAUAAGGGAGAGGAUAUUUAAUAUAGGAUAUAAAAGAAGGCUCGGUUGGUG (Eterna round: R96, puzzle: Same State NG 3)”, the “apparent KD of MS2 coat protein” value by setting is: (input ligand: FMN 200 uM) 86.3 nM; under setting [1], 113 nM; (input ligand: none) 115 nM.

Take “AGACAUGAGGAUCACCCAUGUAUACACUAUAUCAGUGUAACAUAGGAUAUCCACCGCCAUGCUGUGGAGAAGGAUGAAACGGGC [Raerlaan] (Eterna round: R96, puzzle: Same State NG 3)”: the “apparent KD of MS2 coat protein” value reads like this: (input ligand: FMN 200 uM) 211 nM; under setting [1], 65.9 nM; (input ligand: none) 108 nM.

Regarding “GGAGCCGGCCUAGGAUAUUUCAUAAAAUAACAUGAGGAUCACCCAUGUAGGCCAGAAGGCCUUGGGAAGAAGGAGGUCGGCUCC [Loop Effect - U28] (Eterna round: R96, puzzle: Same State NG 2)”, the “apparent KD of MS2 coat protein” value reads like this: (input ligand: FMN 200 uM) 13.4 nM; under setting [1], 23.1 nM; (input ligand: none) 44.4 nM.

Turning to “AGUCCAGCCUGAGCUGGACAAAAGCAUGUACAUGAGGAUCACCCAUGUUCAUGUACAAGCUUUUUGCAAGUCAAAAU [Mat - hsa-mir-208a - Mod of JL - 80] (puzzle: Sensor for hsa-mir-208a)”, the “apparent KD of MS2 coat protein” value turned out to be 723 nM under setting [2], 13.8 nM under setting [3] and 641 nM under setting [4].
